Sequences and labels used below:
T1: human CAPRIN-1 protein expressed on cell membrane surfaces of human cancer cells (human, UniProt Q14444 2-709)
T1 construct: whole, on cells; Endogenous protein on human cancer cells; Flow cytometry was done without permeation of the cell membranes
T1 sequence (looked up): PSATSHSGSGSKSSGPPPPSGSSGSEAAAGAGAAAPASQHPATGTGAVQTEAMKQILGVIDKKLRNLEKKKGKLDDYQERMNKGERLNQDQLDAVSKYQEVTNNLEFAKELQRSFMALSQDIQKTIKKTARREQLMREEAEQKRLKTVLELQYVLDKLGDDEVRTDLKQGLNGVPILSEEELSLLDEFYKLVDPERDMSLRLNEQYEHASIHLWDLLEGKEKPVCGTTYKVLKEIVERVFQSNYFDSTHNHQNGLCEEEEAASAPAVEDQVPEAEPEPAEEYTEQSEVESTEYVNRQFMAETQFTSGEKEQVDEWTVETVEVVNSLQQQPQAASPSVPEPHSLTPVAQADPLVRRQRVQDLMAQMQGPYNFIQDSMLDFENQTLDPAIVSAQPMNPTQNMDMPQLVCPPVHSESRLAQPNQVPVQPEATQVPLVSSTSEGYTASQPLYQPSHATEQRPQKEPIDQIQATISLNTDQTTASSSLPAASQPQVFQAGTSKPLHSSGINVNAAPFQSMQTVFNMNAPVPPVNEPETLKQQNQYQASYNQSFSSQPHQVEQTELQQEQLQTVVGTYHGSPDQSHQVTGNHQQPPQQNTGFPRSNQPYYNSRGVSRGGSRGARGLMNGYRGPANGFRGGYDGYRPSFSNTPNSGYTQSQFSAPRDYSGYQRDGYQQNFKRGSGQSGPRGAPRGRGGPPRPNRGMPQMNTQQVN

B1: anti-CAPRIN-1 antibody (j) (antibody, V domains shown)
VH: DAELVKPGASVKISCKASGYTFTDHSIHWVQQKPEQGLEWIGYISPGNGNIKYNEKFKGKATLTADKSSSTAYMQLNSLTSEDSAVYFCKRSLGRGGPYYFDYWGQGTTVTVSS
VL: DIVLTQAAPSLPVTPGESVSISCRSSKSLLHSNGNTYLYWFLQRPGQSPQLLIYRMSNLASGVPDRFSGSGSGTAFTLRISRVEAEDVGVYYCMQHREYPVTFGSGPN
B2: anti-CAPRIN-1 antibody (a) (antibody, V domains shown)
VH: AVTLDESGGGLQMSRGGLSLVCKASGFDFSSYQMNWIRQAPGKGLEFVAAINKFGNSTGHGAAVKGRVTISRDNGQSTVRLQLNNLRAEDTAIYFCTKHAYGYCGSGTWCAAGEIDAWGHGTEVIVSS
VL: QAASTQPSSVSANPGETVEITCSGGGSYSYGWFQQKSPGSAPVTVIYYNNKRPSDIPSRFSGSKSGSTGTLTITGVQADDEAVYYCGSGDSTDTAVFGAGTTLTVLG
B3: anti-CAPRIN-1 antibody (d) (antibody, V domains shown)
VH: QSLEESGGDLVKPGASLTLTCTASGFSFSGSYYMSWVRQAPGKGLEWIAYIYIGDGVTAYANWAKGRFTISKASSTTVTLQMTSLTAADTATYFCARGNKLWGPGTLVTVSS
VL: DVVMTQTPASVEAAVGGTVTIKCQASQSISSYLAWYQQKPGQPPKRLIYDASNLDSGVPSRFKGSGSGTDFTITISDLECADAATYYCQCTAVSSATIYGNAFGGGTEVVVK
B4: anti-CAPRIN-1 antibody (i) (antibody, V domains shown)
VH: GAELVRSGASVKMSCKASGYSFTDYNMYWVKQTPGQGLEWIGYIYPGNGGTNYNQKFKGKATLTADTSSSTAYMQISSLTSEDSAVYFCARDYDDGGYAMDYWGQGTTVTVSS
VL: DIQMTQSPASLSASVGETVTITCRASGNIHNYLTWYQQKQGKSPQLLVYNAKTLADGVPSRFSGSGSGTQYSLKINRLQPEDFGSYYCQHFWNIPWTFGGGTKLNSR
B5: anti-CAPRIN-1 antibody (af) (antibody, V domains shown)
VH: EVQLVESGGGLVQPGGSLRLSCAASGFSLSSHSLGWVRQAPGKGLEWIGDIRSGGSAYYANWAKGRFTISRDNSKNTLYLQMNSLRAEDTAVYYCTRTNGPSDLTNRLDLWGQGTLVTVSS
VL: QVLTQSPSSLSASVGDRVTINCQASQSLYNNENLAWFQQKPGKVPKRLIYGASTLASGVSSRFSGSGSGTEFTLTISSLQCEDFAIYYCLGEFSCGSADCFAFGGGTKVEIK
B6: anti-CAPRIN-1 antibody (ah) (antibody, V domains shown)
VH: EVQLVESGGGLVQPGGSLRLSCAASGFSLSSHSLGWVRQAPGKGLEWIGDIRSGGSAYYANWAKGRFTISRDNSKNTLYLQMNSLRAEDTAVYYCTRTNGPSDLTNRLDLWGQGTLVTVSS
VL: EQVLTQSPSSLSASVGDRVTINCQASQSLYNNENLAWFQQKPGKVPKRLIYGASTLASGVSSRFSGSGSGTEFTLTISNLQPEDFAIYYCLGEFSCGSADCFAFGGGTKVEIK
B7: anti-CAPRIN-1 antibody (ai) (antibody, V domains shown)
VH: EVQLVESGGGLVQPGGSLRLSCAASGFSLSSHSLGWVRQAPGKGLEWIGDIRSGGSAYYANWAKGRFTISRDNSKNTLYLQMNSLRAEDTAVYFCTRTNGPSDLTNRLDLWGQGTLVTVSS
VL: EIVLTQSPSSLSASVGDRVTINCQASQSLYNNENLAWFQQKPGKVPKRLIYGASTLASGVSSRFSGSGSGTEFTLTISNLQPEDFATYYCLGEFSCGSADCFAFGGGTKVEIK
B8: anti-CAPRIN-1 antibody (b) (antibody, V domains shown)
VH: EQSLVESGGGLVQPGGSLRLSCAASGFSLSSHSLGWVRQAPGKGLEWIGDIRSGGSAYYANWAKGRFTISRDNSKNTLYLQMNSLRAEDTAVYYCTRTNGPSDLTNRLDLWGQGTLVTVSS
VL: QVLTQSPSSLSASVGDRVTINCQASQSLYNNENLAWFQQKPGKVPKRLIYGASTLASGVSSRFSGSGSGTEFTLTISSLQCEDFAIYYCLGEFSCGSADCFAFGGGTKVEIK
B9: anti-CAPRIN-1 antibody (aj) (antibody, V domains shown)
VH: EVQLVESGGGLVQPGGSLRLSCAASGFSLSSHSLGWVRQAPGKGLEWIGDIRSGGSAYYANWAKGRFTISRDNSKNTLYLQMNSLRAEDTAVYYCTRTNGPSDLTNRLDLWGQGTLVTVSS
VL: EIVLTQSPSSLSASVGDRVTINCQASQSLYNNENLAWFQQKPGKVPKRLIYGASTLASGVSSRFSGSGSGTEFTLTISNLQPEDFATYYCLGEFSCGSADCFAFGGGTKVEIK
B10: anti-CAPRIN-1 antibody (ag) (antibody, V domains shown)
VH: EVQLVESGGGLVQPGGSLRLSCAASGFSLSSHSLGWVRQAPGKGLEWIGDIRSGGSAYYANWAKGRFTISRDNSKNTLYLQMNSLRAEDTAVYFCTRTNGPSDLTNRLDLWGQGTLVTVSS
VL: QVLTQSPSSLSASVGDRVTINCQASQSLYNNENLAWFQQKPGKVPKRLIYGASTLASGVSSRFSGSGSGTEFTLTISSLQCEDFAIYYCLGEFSCGSADCFAFGGGTKVEIK
B11: anti-CAPRIN-1 antibody (ak) (antibody, V domains shown)
VH: EVQLVESGGGLVQPGGSLRLSCAASGFSLSSHSLGWVRQAPGKGLEWIGDIRSGGSAYYANWAKGRFTISRDNSKNTLYLQMNSLRAEDTAVYFCTRTNGPSDLTNRLDLWGQGTLVTVSS
VL: EQVLTQSPSSLSASVGDRVTINCQASQSLYNNENLAWFQQKPGKVPKRLIYGASTLASGVSSRFSGSGSGTEFTLTISNLQPEDFAIYYCLGEFSCGSADCFAFGGGTKVEIK
B12: anti-CAPRIN-1 antibody (o) (antibody, V domains shown)
VH: EVQLHQFGAELVKPGASVKISCKASGYTFTDYNMDWVKQSHGKSLEWIGDINPNYDSTSYNQKFKGKATLTVDKSSSTAYMELRSLTSEDTAVYYCARSRSYDYEGFAYWGQGTLVTVSA
VL: DIQMTQSPASLSASVGETVTITCRASGNIHNYLAWYQQKQGKSPQLLVYNAKTLADGVPSRFSGSGSGTQYSLKINSLQPEDFGSYYCQHFWSTLTFGAGTKLELKR
B13: anti-CAPRIN-1 antibody (z) (antibody, V domains shown)
VH: GPDLVKPGASVKISCKASGYSFTAYYMHWVKQSHGKSLEWIGRVNPNNGGTTYNQKFKGKAILTVDKSSSTAYMELRSLTFEDSAVYYCARRIYYGYFDYWGQGTTVTVSS
VL: AFFAVSLGQRATISCKASQSVDYDGDSYMNWYQQKPGQPPKLLIYVASNLESGVPARFSGSGSGTDFTLNIHPVEEEDAATYYCQQSNEDPYTFGGGTKLEIKQ
B14: anti-CAPRIN-1 antibody (e) (antibody, V domains shown)
VH: AVTLDESGGGLQTPGGALSLVCKASGFTFSGYDMLWVRQAPGKGLEWVAGIGSTGGGTDYGAAVKGRATISRDNGQSTVRLQLNNLRAEDTATYYCAKVAGGCNSGYCRDSPGSIDAWGHGTEVIVS
VL: AVTQQPASVSANPGETVKITCSGGGSRNYYGWYQQKSPGSVPVTVIYYDDQRPSNIPSRFSGALSGSTSTLTITGVQADDEAVYFCGSADSNTYEGSFGAGTTLTVL
B15: anti-CAPRIN-1 antibody (c) (antibody, V domains shown)
VH: AVTLDESGGGLQTPGGGLSLVCKASGFTFSSFDMGWVRQAPGKGLEFVAQINDAGSRTWYATAVKGRATISRDNGQTTVRLQLNNLRAEDTGTYYCTRGSGYVGAGAIDAWGHGTEVIVS
VL: AALTQPSSVSANPGETVKITCSGGSGYYGWYQQQKSPGSAPVTVIYQNDKRPSDIPSRFSGSGSGSTNTLTITGVQAEDEAVYFCGRYDSTDSGIFGAGTTLTVL

This test deals with T1, human CAPRIN-1 protein expressed on …. The experiment in a line: flow cytometry on cancer cells. (In general: A flow cytometer gives signals particle by particle.)
For the molecule B1, the binding result was “binds”.

As for B2, the binding result is given as “binds”.

Take B3: the binding result is reported as “binds”.

Consider B4, for which the binding result is “binds”.

As to B5, the binding result was “binds”.

Turning to B6, the binding result is listed as “binds”.

As for B7, the binding result is “binds”.

Consider B8, for which the binding result is “binds”.

Turning to B9, the binding result was “binds”.

For the molecule B10, the binding result was “binds”.

Consider B11, for which the binding result is “binds”.

Consider B12, for which the binding result was “binds”.

B13: the binding result is reported as “binds”.

Take B14: the binding result is given as “binds”.

For the molecule B15, the binding result was “binds”.

The values above are taken from patent EP4640235A1 (Toray Industries, Inc., dated 2025).
